# Tests used:
# [1] = target: Histone H2B (X. laevis), in the nucleosome core particle (X. laevis, UniProt P02281 1-126); assay: crystal structure; Orc1 BAH L79I mixed with nucleosome 3:1, complex purified by gel filtration; sitting drop at 4 °C, 6 mM Na-cacodylate pH 6.0, 0.4 mM spermine-HCl, 2 mM MgCl2, 1.75% PEG 400; 3.3 Å; details: both partners purified
# [2] = target: T1, Histone H4 (X. laevis), in the nucleosome core particle (X. laevis, UniProt P62799 1-103); assay: as above; details: both partners purified
# T1 construct: histone H4, X. laevis; Stood in the crystal as part of the nucleosome m12; source: bacterial expression vector
binder,measurement,setting,value
"Orc1 BAH L79I mutant (domain or fragment, N-alpha-acetyl on A2 (acetylated N-terminus visible in the structure), Orc1 BAH domain, S. cerevisiae, amino acids 1-214, L79I; Used for the crystal structure and in EMSA; source: SF9 insect cells (baculovirus), purified (Ni-NTA, SP-Sepharose FF, Superdex-200)) MAKTLKDLQGWEIITTDEQGNIIDGGQKRLRRRGAKTEHYLKRSSDGIKLGRGDSVVMHNEAAGTYSVYMIQELRLNTINNVVELWALTYLRWFEVNPLAHYRQFNPDANILNRPLNYYNKLFSETANKNELYLTAELAELQLFNFIRVANVMDGSKWEVLKGNVDPERDFTVRYICEPTGEKFVDINIEDVKAYIKKVEPREAQEYLKDLTLP",binding result,[1],binds
same,binding result,[2],binds
